Laboratory results reported in the supplement of paper PMC9876800.

Test system: peptide library, one residue held at a place counted from the S/T acceptor
Assay: relative phosphorylation of the sub-library (ratio to the mean residue at this position); higher = residue favoured
Conditions: human
How it was run: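 Relative sub-library phosphorylation is a ratio to the mean residue at the same position. Purified recombinant kinases were incubated under kinase-specific conditions with biotinylated degenerate peptide sub-libraries, each fixing one residue at one position around a central Ser/Thr, using 50 μM peptide and 50 μM ATP spiked with γ-32P-ATP for 90 min. Spots captured on streptavidin membranes were phosphorimaged and quantified by densitometry.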

CDC7, construct: Full length, sequence (O00311 whole entry, looked up): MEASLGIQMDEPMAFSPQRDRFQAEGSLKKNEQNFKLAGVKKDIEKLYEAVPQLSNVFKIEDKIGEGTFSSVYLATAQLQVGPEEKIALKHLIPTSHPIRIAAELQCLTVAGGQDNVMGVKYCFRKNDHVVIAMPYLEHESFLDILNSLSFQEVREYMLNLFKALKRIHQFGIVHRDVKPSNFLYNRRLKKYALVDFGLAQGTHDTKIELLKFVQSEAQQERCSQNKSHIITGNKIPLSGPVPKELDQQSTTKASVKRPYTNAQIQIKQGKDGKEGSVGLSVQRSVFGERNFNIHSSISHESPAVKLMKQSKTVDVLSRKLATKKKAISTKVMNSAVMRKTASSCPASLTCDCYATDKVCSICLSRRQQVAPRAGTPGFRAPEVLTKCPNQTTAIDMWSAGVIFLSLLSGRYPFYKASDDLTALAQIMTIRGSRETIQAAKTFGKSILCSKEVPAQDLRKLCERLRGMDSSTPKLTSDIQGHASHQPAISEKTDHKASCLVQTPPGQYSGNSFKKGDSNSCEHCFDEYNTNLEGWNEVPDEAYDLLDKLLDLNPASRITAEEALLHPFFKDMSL
CDK1, construct: Full length, sequence (P06493 whole entry, looked up): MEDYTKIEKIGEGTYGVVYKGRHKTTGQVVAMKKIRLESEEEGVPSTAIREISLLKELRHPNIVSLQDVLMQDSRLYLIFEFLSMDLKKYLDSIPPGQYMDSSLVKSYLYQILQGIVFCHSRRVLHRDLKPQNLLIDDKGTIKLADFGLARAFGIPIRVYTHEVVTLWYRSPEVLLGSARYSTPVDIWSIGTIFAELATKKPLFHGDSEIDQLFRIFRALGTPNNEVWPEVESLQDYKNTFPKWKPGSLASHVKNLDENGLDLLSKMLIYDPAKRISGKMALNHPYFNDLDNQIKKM

CDC7, construct: Full length (from UniProt O00311)
relative phosphorylation
Conditions | at +1 | at +2 | at +3 | at +4 | at -1 | at -2 | at -3 | at -4 | at -5
A fixed | 0.668 | 1.31 | 0.87 | 0.939 | 1.13 | 1.05 | 0.87 | 0.99 | 1.26
D fixed | 2.92 | 0.854 | 2.1 | 0.91 | 0.674 | 1.19 | 1.06 | 1.27 | 0.99
E fixed | 4.74 | 0.689 | 1.03 | 0.832 | 0.819 | 1.13 | 1.15 | 1.04 | 0.856
F fixed | 0.577 | 0.712 | 1.35 | 1.04 | 1.04 | 0.895 | 0.91 | 0.949 | 0.988
G fixed | 0.629 | 1.69 | 1.37 | 1.02 | 1.11 | 0.778 | 1 | 0.929 | 0.934
H fixed | 0.513 | 0.887 | 1.02 | 1.08 | 1 | 0.787 | 0.836 | 0.977 | 1.09
I fixed | 0.549 | 0.834 | 0.864 | 1.01 | 0.485 | 1.07 | 0.849 | 0.82 | 0.93
K fixed | 0.444 | 0.596 | 0.561 | 0.769 | 1.31 | 0.72 | 0.802 | 0.909 | 0.954
L fixed | 0.563 | 1.02 | 0.874 | 0.984 | 0.982 | 1.4 | 0.933 | 0.943 | 0.926
M fixed | 0.765 | 0.893 | 0.676 | 0.932 | 1.18 | 1.11 | 0.894 | 0.921 | 0.95
N fixed | 0.691 | 1.13 | 0.897 | 0.878 | 0.884 | 0.715 | 0.888 | 0.955 | 0.979
P fixed | 0.459 | 1.84 | 0.945 | 1.15 | 1.01 | 1.64 | 1.06 | 1.11 | 0.914
Q fixed | 1.31 | 0.756 | 0.694 | 0.782 | 0.781 | 0.749 | 0.848 | 0.866 | 0.77
R fixed | 0.472 | 0.816 | 0.506 | 0.723 | 1.11 | 1.06 | 1.65 | 0.907 | 1.06
V fixed | 0.612 | 0.737 | 0.761 | 0.894 | 0.671 | 0.988 | 0.856 | 0.935 | 0.943
W fixed | 0.567 | 1.44 | 1.23 | 1.48 | 1.59 | 0.854 | 1.33 | 1.36 | 1.28
Y fixed | 0.523 | 0.796 | 1.25 | 1.58 | 1.23 | 0.884 | 1.06 | 1.12 | 1.18
pThr fixed | 2.38 | 0.801 | 1.41 | 1.34 | 0.583 | 1.12 | 1.46 | 1.13 | 0.831
pTyr fixed | 0.631 | 0.537 | 0.792 | 1.15 | 0.684 | 0.717 | 1.06 | 0.937 | 0.844

CDK1, construct: Full length (from UniProt P06493)
relative phosphorylation
Conditions | at +1 | at +2 | at +3 | at +4 | at -1 | at -2 | at -3 | at -4 | at -5
A fixed | 0.334 | 1.04 | 0.598 | 0.854 | 0.927 | 1 | 0.841 | 0.996 | 1.04
D fixed | 0.205 | 0.814 | 0.505 | 0.941 | 1.21 | 1.03 | 1.26 | 1.56 | 1.55
E fixed | 0.231 | 0.724 | 0.425 | 0.786 | 0.927 | 0.898 | 1.25 | 1.38 | 1.36
F fixed | 0.187 | 0.68 | 0.396 | 0.78 | 0.639 | 0.853 | 0.825 | 0.825 | 0.882
G fixed | 0.717 | 1.13 | 0.852 | 1.1 | 1.43 | 1.29 | 1.31 | 1.14 | 1.4
H fixed | 0.244 | 1.18 | 0.907 | 1.23 | 0.744 | 0.87 | 1.01 | 0.908 | 0.893
I fixed | 0.21 | 0.694 | 0.346 | 0.758 | 0.352 | 0.669 | 0.663 | 0.654 | 0.751
K fixed | 0.331 | 1.86 | 5.37 | 1.83 | 1.65 | 0.597 | 1.01 | 0.973 | 1.11
L fixed | 0.228 | 0.752 | 0.403 | 0.792 | 0.62 | 0.89 | 0.743 | 0.69 | 0.799
M fixed | 0.24 | 0.839 | 0.423 | 0.913 | 0.85 | 1.04 | 0.761 | 0.806 | 0.759
N fixed | 0.299 | 1.19 | 0.838 | 1.12 | 1.27 | 0.803 | 1.11 | 1.01 | 0.944
P fixed | 12.4 | 1.04 | 0.999 | 1.08 | 1.61 | 3.11 | 1.84 | 1.49 | 1.16
Q fixed | 0.292 | 1.16 | 0.798 | 1.02 | 1.22 | 0.856 | 0.976 | 0.922 | 0.86
R fixed | 0.324 | 1.64 | 2.82 | 1.21 | 1.4 | 0.649 | 0.921 | 1.02 | 0.934
V fixed | 0.295 | 0.656 | 0.413 | 0.695 | 0.483 | 0.687 | 0.705 | 0.586 | 0.718
W fixed | 0.213 | 0.769 | 0.485 | 0.973 | 0.758 | 0.935 | 0.883 | 1.05 | 0.852
Y fixed | 0.202 | 0.842 | 0.415 | 0.924 | 0.897 | 0.825 | 0.893 | 0.985 | 0.99
pThr fixed | 0.851 | 1.38 | 1.59 | 0.946 | 0.621 | 1.16 | 1.3 | 1.43 | 1.74
pTyr fixed | 0.777 | 0.913 | 1.36 | 1.08 | 0.885 | 1.28 | 1.48 | 1.42 | 1.66
